Data taken from patent publication US20060270591A1, “Androgen receptor coregulators” (priority 2002, published 2006).

Experiments:
Assay type in all cases: cell-based, human
[1] = system: AR; test: AR transactivation reporter assay (CAT/luciferase) (Example 3); conditions: for effect of ARA70N construct on AR transactivation: COS-1 cells, 10 nM T, MMTV-LUC
Procedure: 21. […] Further adding GAL-DBD (lane 1 and 2) or GAL-DBD-ARA70N with wild type (lane 3 and 4) or mutant (lane 5-8) FXXLF motifs to the cells. (B) Effect of wild type and mutant FXXLF motifs ARA70N on AR transactivation in COS-1 cells. […] 0.5 ng SV40-Renila Luciferase was used as an internal control. Relative luciferase activity was calculated by dual luciferase system.
411. Human prostate cancer DU145 and PC-3 cells were maintained in Dulbecco's Minimum Essential Medium (DMEM) containing penicillin (25 U/ml), streptomycin (25 μg/ml), and 5% fetal calf serum (FCS). Human LNCaP cells were maintained in RPMI containing penicillin (25 U/ml), streptomycin (25 μg/ml), and 10% FCS. Transfections were performed using the calcium phosphate precipitation method, as previously described (Dynlacht et al. (1991) Cell 66, 563-576). Briefly, 4×10^5 cells were plated on 60-mm dishes 24 hours before transfection, and the medium was changed to DMEM with 5% charcoal-dextran stripped FCS (CS-FBS) one hour before transfection. Transfection medium contained a constant amount of reporter plasmid and indicated amounts of pSG5-receptor, ARA70, or pCMX-GAL fusion construct using pSG5 as a carrier to provide equal amounts of transfected DNA. […] After another 24 hours, the cells were harvested for chloramphenicol transferase (CAT) or luciferase assays. At least three independent experiments were carried out in each case. Superfect (Qiagen) was used for transfection in LNCaP cells. The transfection conditions followed the manufacturer's protocol. Cell extracts were prepared and assayed for CAT or luciferase activity (Promega) and normalized against β-galactosidase or Renilla luciferase activity as indicated. All data were the mean±SD results from three to six independent experiments.
Target sequence in this assay (P10275 whole entry, the tested form may be a part): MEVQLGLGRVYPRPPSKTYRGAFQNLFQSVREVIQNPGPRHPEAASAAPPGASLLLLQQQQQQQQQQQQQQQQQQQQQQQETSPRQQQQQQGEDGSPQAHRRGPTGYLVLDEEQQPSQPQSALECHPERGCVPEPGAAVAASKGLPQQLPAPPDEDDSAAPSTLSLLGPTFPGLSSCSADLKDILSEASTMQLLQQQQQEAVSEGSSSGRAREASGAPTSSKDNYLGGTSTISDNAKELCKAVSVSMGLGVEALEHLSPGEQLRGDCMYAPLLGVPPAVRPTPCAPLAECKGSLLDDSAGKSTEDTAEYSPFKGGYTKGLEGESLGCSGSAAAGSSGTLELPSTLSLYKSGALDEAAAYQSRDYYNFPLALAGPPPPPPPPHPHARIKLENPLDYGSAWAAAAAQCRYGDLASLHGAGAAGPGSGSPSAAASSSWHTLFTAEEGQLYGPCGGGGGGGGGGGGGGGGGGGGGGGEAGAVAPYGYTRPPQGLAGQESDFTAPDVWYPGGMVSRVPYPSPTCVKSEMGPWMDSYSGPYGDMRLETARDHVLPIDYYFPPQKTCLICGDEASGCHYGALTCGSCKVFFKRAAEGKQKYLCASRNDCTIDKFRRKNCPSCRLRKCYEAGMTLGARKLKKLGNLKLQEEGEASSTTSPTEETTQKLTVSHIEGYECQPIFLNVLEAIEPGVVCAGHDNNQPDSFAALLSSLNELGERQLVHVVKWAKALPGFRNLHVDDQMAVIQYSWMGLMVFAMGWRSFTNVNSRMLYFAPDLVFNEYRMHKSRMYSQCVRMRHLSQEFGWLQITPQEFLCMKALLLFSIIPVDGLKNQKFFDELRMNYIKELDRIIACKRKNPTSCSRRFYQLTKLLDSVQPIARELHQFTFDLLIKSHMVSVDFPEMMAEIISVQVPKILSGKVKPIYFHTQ

[2] = system: PSA; test: PSA northern and western blot in LNCaP cells (Example 3); conditions: 1 nM DHT
Description: 20. […] (A) ARA70-N2 can serve as a dominant-negative to inhibit coregulator enhanced AR activity in DU145 cells. The pCMV-β-gal construct was used as an internal control, and the relative CAT activity was normalized by the β-gal activity. Data represent the mean±S.D. of four independent experiments. (B) ARA70-N2 can serve as a dominant-negative repressor to compete with the function of endogenous coregulators and inhibit AR transactivation in LNCaP cells. (C) ARA70-N2 can serve as a dominant-negative repressor to inhibit the expression of PSA mRNA in LNCaP cells. Human prostate cancer LNCaP cells were transfected with 4 and 8 μg of ARA70-N2 for 3 hours. […] The blot containing 20 μg total RNA in each lane was hybridized with a PSA specific cDNA probe. […] (D) ARA70-N2 can inhibit PSA protein expression in a dominant-negative manner. 4×10^6 LNCaP cells were plated on 100-mm dishes 24 hours before transfection. […] The blot containing 70 μg total cell lysate in each lane was hybridized with a PSA specific antibody. The same membrane was hybridized with a specific antibody for β-actin for equal protein loading.

[3] = system: AR; test: AR transactivation assay, MMTV-CAT reporter, transient transfection (Example 1); conditions: for AR transcription activity with cotransfected coactivator: wild type AR
Procedure: Human prostate cancer DU145 or PC3 cells, or human lung carcinoma cells NCI H1299 were grown in Dulbecco's minimal essential medium (DMEM) containing penicillin (25 U/ml), streptomycin (25˜g/ml), and 5% fetal calf serum (FCS). One hour before transfection, the medium was changed to DMEM with 5% charcoal-stripped FCS. […] A β-galactosidase expression plasmid, pCMV-β-gal, was used as an internal control for transfection efficiency.
The medium was changed 24 hr posttransfection and the cells treated with either steroid hormones or hydroxyflutamide, and cultured for an additional 24 hr. Cells were harvested and assayed for CAT activity after the cell lysates were normalized by using β-galactosidaseas an internal control. Chloramphenicol acetyltransferase (CA) activity was visualized by PhosphorImager (Molecular Dynamics) and quantitated by ImageQuant software (Molecular Dynamics).

[4] = system: AR; test: Mammalian two-hybrid CAT assay, interaction with AR in DU145 cells (Example 1)
Description: 368. The mammalian two-hybrid system employed was essentially the protocol of Clontech (California), with the following modifications. In order to obtain better expression, the GAL4 DBD (a.a. 1-147) was fused to pSGS under the control of an SV40 promoter, and named pGALO.
369. The hinge and LBD of wtAR were then inserted into pGALO. Similarly, the VPI6 activation domain was fused to pCMX under the control of a CMV promoter, and designated pCMX-VP16 (provided by Dr. R. M. Evan).
Target sequence in this assay (P10275 669-900 limits assumed): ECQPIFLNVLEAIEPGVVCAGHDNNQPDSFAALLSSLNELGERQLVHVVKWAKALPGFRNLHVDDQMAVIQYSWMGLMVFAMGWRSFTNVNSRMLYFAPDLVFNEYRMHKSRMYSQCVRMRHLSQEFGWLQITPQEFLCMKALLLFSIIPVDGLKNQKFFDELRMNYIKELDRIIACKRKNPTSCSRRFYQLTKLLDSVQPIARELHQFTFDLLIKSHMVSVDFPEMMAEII

B1: ARA70-N2: ARA70 region between amino acids 176-401, dominant-negative repressor (protein, UniProt Q13772 176-401, looked up, fragment)
chain: GPFLEKRGCISMPEQKSASGIVAVPFSEWLLGSKPASGYQAPYIPSTDPQDWLTQKQTLENSQTSSRACNFFNNVGGNLKGLENWLLKSEKSSYQKCNSHSTTSSFSIEMEKVGDQELPDQDEMDLSDWLVTPQESHKLRKPENGSRETSEKFKLLFQSYNVNDWLVKTDSCTNCQGNQPKGVEIENLGNLKCLNDHLEAKKPLSTPSMVTEDWLVQNHQDPCKVE
**Q.** For B1, which “effect on ARA70N-enhanced AR transactivation” value ([1]; DU145 cells) is on record?
**A.** inhibit ARA70N-enhanced AR transactivation

**Q.** And the “effect on PSA mRNA and protein expression” value [2]?
**A.** repressed PSA mRNA

B2: pSG5-ARA70N-AXXLF: ARA70N with FXXLF motif mutated to AXXLF (protein)
chain: MNTFQDQSGSSSNREPLLRCSDARRDLELAIGGVLRAEQQIKDNLREVKAQIHSCISRHLECLRSREVWLYEQVDLIYQLKEETLQQQAQQLYSLLGQFNCLTHQLECTQNKDLANQVSVCLERLGSLTLKPEDSTVLLFEADTITLRQTITTFGSLKTIQIPEHLMAHASSANIGPFLEKRGCISMPEQKSASGIVAVPFSEWLLGSKPASGYQAPYIPSTDPQDWLTQKQTLENSQTSSRACNFFNNVGGNLKGLENWLLKSEKSSYQKCNSHSTTSSFSIEMEKVGDQELPDQDEMDLSDWLVTPQESHKLRKPENGSRETSEKFKLLFQSYNVNDWLVKTDSCTNCQGNQPKGVEIENLGNLKCLNDHLEAKKPLSTPSMVTEDWLVQNHQDPCKVE
**Q.** B2 was tested. Which “effect of ARA70N construct on AR transactivation” value [1] did it give?
**A.** marginal induction effect

B3: pSG5-ARA70N-FXXAA: ARA70N with FXXLF motif mutated to FXXAA (protein)
chain: MNTFQDQSGSSSNREPLLRCSDARRDLELAIGGVLRAEQQIKDNLREVKAQIHSCISRHLECLRSREVWLYEQVDLIYQLKEETLQQQAQQLYSLLGQFNCLTHQLECTQNKDLANQVSVCLERLGSLTLKPEDSTVLLFEADTITLRQTITTFGSLKTIQIPEHLMAHASSANIGPFLEKRGCISMPEQKSASGIVAVPFSEWLLGSKPASGYQAPYIPSTDPQDWLTQKQTLENSQTSSRACNFFNNVGGNLKGLENWLLKSEKSSYQKCNSHSTTSSFSIEMEKVGDQELPDQDEMDLSDWLVTPQESHKLRKPENGSRETSEKFKLLFQSYNVNDWLVKTDSCTNCQGNQPKGVEIENLGNLKCLNDHLEAKKPLSTPSMVTEDWLVQNHQDPCKVE
**Q.** How did the “effect of ARA70N construct on AR transactivation” value [1] turn out when B3 was run?
**A.** marginal induction effect

B4: Rb: retinoblastoma protein (protein, UniProt P06400 2-928, looked up)
Retinoblastoma-associated …: PPKTPRKTAATAAAAAAEPPAPPPPPPPEEDPEQDSGPEDLPLVRLEFEETEEPDFTALCQKLKIPDHVRERAWLTWEKVSSVDGVLGGYIQKKKELWGICIFIAAVDLDEMSFTFTELQKNIEISVHKFFNLLKEIDTSTKVDNAMSRLLKKYDVLFALFSKLERTCELIYLTQPSSSISTEINSALVLKVSWITFLLAKGEVLQMEDDLVISFQLMLCVLDYFIKLSPPMLLKEPYKTAVIPINGSPRTPRRGQNRSARIAKQLENDTRIIEVLCKEHECNIDEVKNVYFKNFIPFMNSLGLVTSNGLPEVENLSKRYEEIYLKNKDLDARLFLDHDKTLQTDSIDSFETQRTPRKSNLDEEVNVIPPHTPVRTVMNTIQQLMMILNSASDQPSENLISYFNNCTVNPKESILKRVKDIGYIFKEKFAKAVGQGCVEIGSQRYKLGVRLYYRVMESMLKSEEERLSIQNFSKLLNDNIFHMSLLACALEVVMATYSRSTSQNLDSGTDLSFPWILNVLNLKAFDFYKVIESFIKAEGNLTREMIKHLERCEHRIMESLAWLSDSPLFDLIKQSKDREGPTDHLESACPLNLPLQNNHTAADMYLSPVRSPKKKGSTTRVNSTANAETQATSAFQTQKPLKSTSLSLFYKKVYRLAYLRLNTLCERLLSEHPELEHIIWTLFQHTLQNEYELMRDRHLDQIMMCSMYGICKVKNIDLKFKIIVTAYKDLPHAVQETFKRVLIKEEEYDSIIVFYNSVFMQRLKTNILQYASTRPPTLSPIPHIPRSPYKFPSSPLRIPGGNIYISPLKSPYKISEGLPTPTKMTPRSRILVSIGESFGTSEKFQKINQMVCNSDRVLKRSAEGSNPPKPLKKLRFDIEGSDEADGSKHLPGESKFQQKLAEMTSTRTRMQKQKMNDSMDTSNKEEK
**Q.** For B4, which “AR transcription activity with cotransfected coactivator” value ([3]; DU145 cells, 1 nM DHT) is on record?
**A.** 21 fold

**Q.** And the “AR transcription activity with cotransfected coactivator” value ([3]; DU145 cells, 10 nM E2)?
**A.** 12 fold

**Q.** And the “induced CAT activity in mammalian two-hybrid assay” value [4]?
**A.** 3 fold

B5: ARA55: AR coactivator, 444 aa polypeptide with high homology to mouse hic5 (protein)
chain: ANFNQSGNIADSSLSFTFTNSSNGPNLITTQTNSQALSQPIASSNVHDNFMNNEITASKIDDGNNSKPLSPGWTDQTAYNAFGITTGMFNTTTMDDVYNYLFDDEDTPPNPKKEMPRSGAPKERPAEPLTPPPSYGHQPTGQSGESSGASGDKDHLYSTVCKPRSPKPAAPAAPPFSSSSGVLGTGLCELDRLLQELNATQFNITDEIMSQFPSSKVASGEQKEDQSEDKKRPSLPSSPSPGLPKASATSATLELDRLMASLPDFRVQNHLPASGPTQPPVVSSTNEGSPSPPEPTAKGSLDTMLGLLQSDLSRRGVPTQAKGLCGSCNKPIAGQVVTALGRAWHPEHFVCGGCSTALGGSSFFEKDGAPFCPECYFERFSPRCGFCNQPIRHKMVTALGTHWHPEHFCCVSCGEPFGDEGFHEREGRPYCRRDFLQLFAPRCQGCQGPILDNYISALSLLWHPDCFVCRECFAPFSGGSFFEHEGRPLCENHFHARRGSLCPTCGLPVTGRCVSALGRRFHPDHFACTFCLRPLTKGSFQERAGKPYCQPCFLKLFG
**Q.** B5 was tested. Which “enhancement of transactivation of wtAR, mARt877s and mARe708k” value ([3]; DHT 10^−11 to 10^−8 M, all three receptors) did it give?
**A.** 4-8 fold

**Q.** What about the “further increase of the DHT induction” value ([3]; DU145 cells, 10 nM DHT, AR:ARA55 up to 1:4.5) of the same molecule?
**A.** 5.3 fold

**Q.** And the “AR transcription activity with coactivator” value ([3]; DU145 cells, 10 nM DHT, with ARA55)?
**A.** 22.8 fold

**Q.** What about the “increase of AR transcription activity upon transfection with exogenous ARA55” value ([3]; PC3 cells) of the same molecule?
**A.** 4 fold

B6: ARA55251-444: C-terminus of ARA55 (a.a. 251-444 of SEQ ID NO:4) (protein)
chain: EKDGAPFCPECYFERFSPRCGFCNQPIRHKMVTALGTHWHPEHFCCVSCGEPFGDEGFHEREGRPYCRRDFLQLFAPRCQGCQGPILDNYISALSLLWHPDCFVCRECFAPFSGGSFFEHEGRPLCENHFHARRGSLCPTCGLPVTGRCVSALGRRFHPDHFACTFCLRPLTKGSFQERAGKPYCQPCFLKLFG
modifications: Homo sapien
**Q.** B6 was tested. Which “effect on AR transcription activity” value ([3]; PC3 cells, endogenous ARA55, 10 nM DHT) did it give?
**A.** dramatically reduced AR transcription activity
